Test results from PMC10063446 (Nature Immunology, 2023).

B1: P186-2B1 (antibody, V domains shown)
VH: EVQLVESGGGLVQPGGSLRLSCAASGFTVSSNYMSWVRQAPGKGLEWVSVIYSGGSTYYTDSVKGRFTISRHNSKNTLYLQMNSLRVEDTAVYYCARVGTNYINNSGWYFDYWGQGTLVTVSS
VL: not shown
B2: P195-2A3 (antibody, V domains shown)
VH: QVTLRESGPALVKPTQTLTLTCTFSGFSLSTSGMCVSWIRQPPGKALEWLALIDWDDDKYYSTSLKTRLTISKDTSKNQVVLRMTNMDPVDTATYYCARSWVGGGLDVWGQGTTVTVSS
VL: not shown
B3: P5-2H11 (antibody, V domains shown)
VH: EVQLVESGGGLIQPGGSLRLSCAASEFTVSSNYMSWVRQAPGKGLEWVSIIYSGGSTFYADSVKGRFTISRDNSQNTLYLQMNSLRAEDTAVYYCARTLPLYGDYFDYWGQGTLVTVSS
VL: QSVLTQPPSVSGAPGQRVTISCTGSSSNIGAGYDVHWYQQLPGTAPKLLIYGNNNRPSGVPDRFSGSKSGTSASLAITGLQPEDEADYYCQSYDSSLSVVFGGGAKLTVL
B4: P195-1E11 (antibody, V domains shown)
VH: EVQLVESGGGLVQPGRSLRLSCAASGFTFDDYAMHWVRQAPGKGLEWVSGISWNSGSIVYADSVKGRFTISRDNAKNSLYLQMNSLRAEDTALYYCAKDSEDCSSTNCYFDYWGQGTLVTVSS
VL: not shown
B5: P186-1H2 (antibody, V domains shown)
VH: EVQLVESGGGLVQPGRSLRLSCAASGFTFGDYAMHWVRQSPGKGLEWVSGITWNSAGIGYADSVKGRFTISRDNAKNSLYLQMNSLRVEDTALYYCAKAPKWGGVDYLFDYWGQGTLVTVSS
VL: not shown
B6: P2-2D8 (antibody, V domains shown)
VH: EVQLVESGGGLVKPGGSLRLSCAASGFTFSNAWMNWVRQAPGKGLEWVGRIKSKADGGTTDYAAPVKGRFTISRDDSKNTLYLQMNSLKTDDTAVYYCTTTRAVAATLNFLFSYYDGMDVWGQGTTVTVSS
VL: NFMLTQPHSVSESPGKTVTISCTGSSGSIASNYVQWYQQRPGSAPTTVIYEDNQRPSGVPDRFSGSIDSSSNSASLTISGLKTEDEADYYCQSYDSNNHLVLFGGGTKLTVL
B7: P195-1B7 (antibody, V domains shown)
VH: QITLKESGPTLVKPTQTLTLTCTFSGFSLSTSGVGVGWIRQPPGKALEWLALIYWDDDKRYSPSLKSRLTITKDTSKNQVVLTMTNMDPVDTATYYCAHSGYSGYDWRGFDYWGQGTLVTVSS
VL: SYELTQPPSVSVSPGQTARITCSADALPKQYAYWYQQKPGQAPVLVIYKDSERPSGIPERFSGSSSGTTVTLTISGVQAEDEADYYCQSADSSGTYPVVFGGGTKLTVL
B8: P10S-1D8 (antibody, V domains shown)
VH: QMQLVQSGPEVKKPGTSVKVPCKASGFTFSSSAVQWVRQARGQRLEWIGWIVVGSGNTNYAQKFQERVTITRDMSTSTAYMELSSLRSEDTAVYYCAAPGCNSTSCYDGFDIWGQGTMVTVSS
VL: not shown
B9: P10S-2F9 (antibody, V domains shown)
VH: QVTLRESGPALVKPTQTLPLTCTFSGFSLSTSGMCVSWIRQPPGKALEWLALIDWDDNKYYSTSLKARLTISKDTSKNQVVLTMTNMDPVDTATYYCARIPALLRYLDKFYYFGMDVWGQGTTVTVSS
VL: QSVLTQPPSVSAAPGQKVTISCSGSSPNIGNNYVSWYQQLPGTAPKLLIYDNNKRPSGIPDRFSGSKSGTSATLGITGLQTGDEAGYYCGTWDSSLSAVVFGGGTKLTVL

target: recombinant RBD protein of wild-type SARS-CoV-2 (ELISA antigen) (SARS-CoV-2 wild-type, UniProt P0DTC2)

Row | Binder | binding result
1 | B1 | binds
2 | B2 | binds
3 | B3 | binds
4 | B4 | binds
5 | B5 | binds
6 | B6 | binds
7 | B7 | binds
8 | B8 | binds
9 | B9 | binds

target: recombinant wild-type SARS-CoV-2 S trimer (ELISA antigen) (SARS-CoV-2 wild-type, UniProt P0DTC2)

Row | Binder | binding result
10 | B1 | binds
11 | B2 | binds
12 | B3 | binds
13 | B4 | binds
14 | B5 | binds
15 | B6 | binds
16 | B7 | binds
17 | B8 | binds
18 | B9 | binds
